Data: the supplement of paper PMC7125110
± gives the standard error. For part of these data: This sample holds only a part of the variants without activity.

B1: glmS ribozyme (parent)
chain: AUAAAAGCGCCAGAACUACAGAAAUGUAGUUGACGAGGAGGAGGUUUAUCGAAUUUUCGGCGGAUGCCUCCAAA

Legend:
Conditions in all cases: with glucosamine-6-phosphate
glucosamine-6-phosphate [1] = variants of: B1; assay: kcat; higher = faster cleavage; RNA array
Summary of the method: (§1)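 Weighted Michaelis–Menten fits across concentrations supplied kcat and KM, based on kobs from one- or two-exponential decay fits to normalised per-tile medians. The data came from barcoded ribozyme variants transcribed in situ by E. coli RNA polymerase on sequenced MiSeq chips and tracked at 37 °C by a hybridised Cy3 probe. Glucosamine-6-phosphate (40 μM to 10 mM) in HEPES/KCl/Mg(OAc)2 buffer was flowed in.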

glucosamine-6-phosphate [2] = variants of: B1; assay: self-cleavage kobs at 10000 uM GlcN6P; higher = faster cleavage; RNA array
Summary of the method: as §1

glucosamine-6-phosphate [3] = variants of: B1; assay: self-cleavage kobs at 40 uM GlcN6P; higher = faster cleavage; RNA array
Summary of the method: as §1

glucosamine-6-phosphate [4] = variants of: B1; assay: self-cleavage kobs at 160 uM GlcN6P; higher = faster cleavage; RNA array
Summary of the method: as §1

glucosamine-6-phosphate [5] = variants of: B1; assay: self-cleavage kobs at 640 uM GlcN6P; higher = faster cleavage; RNA array
Summary of the method: as §1

glucosamine-6-phosphate [6] = variants of: B1; assay: KM; higher = weaker cofactor use; RNA array
Summary of the method: as §1

glucosamine-6-phosphate [7] = variants of: B1; assay: self-cleavage kobs at 2500 uM GlcN6P; higher = faster cleavage; RNA array
Summary of the method: as §1

Variant	kcat (glucosamine-6-phosphate [1]) [s⁻¹]	self-cleavage kobs at 10000 uM GlcN6P (glucosamine-6-phosphate [2]) [s⁻¹]	self-cleavage kobs at 40 uM GlcN6P (glucosamine-6-phosphate [3]) [s⁻¹]	self-cleavage kobs at 160 uM GlcN6P (glucosamine-6-phosphate [4]) [s⁻¹]	self-cleavage kobs at 640 uM GlcN6P (glucosamine-6-phosphate [5]) [s⁻¹]	KM (glucosamine-6-phosphate [6]) [µM]	self-cleavage kobs at 2500 uM GlcN6P (glucosamine-6-phosphate [7]) [s⁻¹]
G7U A48U C50G U54G	3.22e-05 ± 1.3e-05	–	–	–	–	–	–
C10U C61U G63A	< 1e-05	< 1e-05	–	–	–	–	–
C10G C67A	2.45e-05 ± 7.2e-06	–	–	–	–	–	–
C10U U30G	< 1e-05	–	< 1e-05	< 1e-05	< 1e-05	–	–
G7A C70U	6.43e-05 ± 1.1e-05	4.14e-05 ± 7.5e-06	–	–	–	5580 ± 2200	–
G9A C71U	5.71e-05 ± 4.6e-06	–	–	–	–	–	–
G7U G66U C70G	< 1e-05	–	–	–	–	–	< 1e-05
C11A U57A	< 1e-05	–	–	–	–	–	–
C10U G66A	1.5e-05 ± 2.3e-06	–	–	–	–	–	–
C10U G66U	< 1e-05	< 1e-05	–	< 1e-05	< 1e-05	–	–
C8A C61U G66A	< 1e-05	–	–	–	< 1e-05	–	< 1e-05
C10A U57G	< 1e-05	–	< 1e-05	–	–	–	–
A6U U31A U47G C50A A64G C68U	2.33e-05 ± 2.2e-06	–	–	–	–	–	–
A6U G40U	2.6e-05 ± 7e-07	1.8e-05 ± 7.6e-06	–	–	–	4450 ± 330	–
C10G G60C	0.00245 ± 0.00047	0.00198 ± 0.00023	3.56e-05 ± 6.7e-06	0.000167 ± 2.9e-05	0.000733 ± 8.9e-05	2180 ± 610	0.00117 ± 0.00023
C10G G60U	4.68e-05 ± 1.2e-05	2.05e-05 ± 1e-05	< 1e-05	< 1e-05	–	–	–
C11A C34G G60U A64G	< 1e-05	–	< 1e-05	–	< 1e-05	–	–
C10U U47A	2.05e-05 ± 1.2e-06	–	< 1e-05	< 1e-05	–	300 ± 150	–
G9U A42G U47C	< 1e-05	–	–	< 1e-05	< 1e-05	–	–
A6U U30A	3.27e-05 ± 4.2e-06	2.86e-05 ± 1e-05	< 1e-05	< 1e-05	–	–	–
A6U U30G	4.09e-05 ± 8.6e-06	3.5e-05 ± 9.7e-06	< 1e-05	–	–	–	4.14e-05 ± 1.3e-05
C10A U30A C68U	7.99e-05 ± 2.3e-05	–	–	8.08e-05 ± 2.5e-05	–	–	–
A6U C58U C70G	1.51e-05 ± 4.3e-06	–	–	–	–	–	–

Variant	kcat (glucosamine-6-phosphate [1]) [s⁻¹]	self-cleavage kobs at 10000 uM GlcN6P (glucosamine-6-phosphate [2]) [s⁻¹]	self-cleavage kobs at 40 uM GlcN6P (glucosamine-6-phosphate [3]) [s⁻¹]	self-cleavage kobs at 160 uM GlcN6P (glucosamine-6-phosphate [4]) [s⁻¹]	self-cleavage kobs at 640 uM GlcN6P (glucosamine-6-phosphate [5]) [s⁻¹]	KM (glucosamine-6-phosphate [6]) [µM]	self-cleavage kobs at 2500 uM GlcN6P (glucosamine-6-phosphate [7]) [s⁻¹]
C11A G66U	< 1e-05	–	< 1e-05	–	< 1e-05	58.7 ± 26	< 1e-05
A6C U47G	1.58e-05 ± 2.8e-06	–	–	–	–	–	–
A6C U47A	0.0001 ± 5.6e-06	6.15e-05 ± 1.4e-05	–	–	–	6300 ± 770	–
A6C U47C	1.02e-05 ± 2.4e-07	–	–	< 1e-05	–	526 ± 77	–
A6U G35U G38C A53U A64G	< 1e-05	–	–	< 1e-05	–	–	–
C10A C58G	1.34e-05 ± 2.4e-06	–	–	–	–	–	–
C10A C58U	< 1e-05	–	–	–	< 1e-05	–	–
C10G A12C	3.86e-05 ± 1.4e-05	2.24e-05 ± 9.4e-06	–	–	–	–	–
C11G C67G C70G	5.32e-05 ± 2.1e-05	–	–	–	8.18e-05 ± 2.2e-05	–	–
C10A A12G	< 1e-05	< 1e-05	< 1e-05	–	–	–	–
G9U U31C	< 1e-05	< 1e-05	–	–	< 1e-05	–	–
A6G C71U	6.03e-05 ± 2.1e-06	5.1e-05 ± 6.3e-06	–	–	–	1890 ± 260	3.33e-05 ± 8e-06
A6U U46C	2.4e-05 ± 7.8e-07	–	–	< 1e-05	–	2710 ± 290	–
A6C C34A G37A G38A G63U C68U C70G	1.43e-05 ± 4.9e-06	–	–	–	< 1e-05	–	–
A6U A42G	0.000505 ± 0.00011	0.00038 ± 6e-05	–	–	8.54e-05 ± 1.6e-05	3730 ± 1400	0.000156 ± 5.1e-05
C11A A12G	0.000158 ± 1.7e-05	0.000119 ± 2.5e-05	–	–	2.43e-05 ± 1.1e-05	3020 ± 720	8.06e-05 ± 2.3e-05
A6U C70U	0.000253 ± 4.2e-05	0.000197 ± 2.7e-05	–	–	8.14e-05 ± 9.8e-06	1200 ± 440	0.00021 ± 2.2e-05
C10A U57C C61U	< 1e-05	< 1e-05	–	–	–	–	–
A6U A14U	4.98e-05 ± 1.9e-06	4.79e-05 ± 6.3e-06	–	–	3.6e-05 ± 1.2e-05	310 ± 92	4.51e-05 ± 1.4e-05
A6U G13C C70G	2.43e-05 ± 8.6e-06	–	–	–	–	–	–
A6U C67A	7.39e-05 ± 6.8e-06	7.43e-05 ± 7.2e-06	–	–	6.68e-05 ± 1.7e-05	–	5.62e-05 ± 1.1e-05
C11A U30A	0.000318 ± 4.7e-05	0.000288 ± 4.4e-05	–	–	8.58e-05 ± 1.7e-05	1940 ± 600	0.000146 ± 3.4e-05
